Measured values from publication PMC6100724 (2018).

Molecular target: Scribble PDZ1 (His-tagged, aa 719-829) (human, UniProt Q14160 719-829)
Assay: ITC

Sequence of Scribble PDZ1 (His-tagged, aa 719-829) (Q14160 719-829): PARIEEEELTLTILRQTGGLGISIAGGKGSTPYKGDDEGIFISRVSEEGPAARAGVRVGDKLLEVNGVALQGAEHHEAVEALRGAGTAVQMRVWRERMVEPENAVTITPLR

ARVSKETPL [ARVSKETPL (MAPK12 peptide, unphosphorylated)]
Kd: 1600 nM
